In paper PMC4012256:

Experiment: HEK293T adhesion to FN-coated surface, crystal violet, Ca2+-Mg2+
Details: glycan lost; control: αVβ3(N339S)

B1: integrin αV subunit (of αVβ3): αV(N266Q)β3(N339S) (protein)
parent chain: MAFPPRRRLRLGPRGLPLLLSGLLLPLCRAFNLDVDSPAEYSGPEGSYFGFAVDFFVPSASSRMFLLVGAPKANTTQPGIVEGGQVLKCDWSSTRRCQPIEFDATGNRDYAKDDPLEFKSHQWFGASVRSKQDKILACAPLYHWRTEMKQEREPVGTCFLQDGTKTVEYAPCRSQDIDADGQGFCQGGFSIDFTKADRVLLGGPGSFYWQGQLISDQVAEIVSKYDPNVYSIKYNNQLATRTAQAIFDDSYLGYSVAVGDFNGDGIDDFVSGVPRAARTLGMVYIYDGKNMSSLYNFTGEQMAAYFGFSVAATDINGDDYADVFIGAPLFMDRGSDGKLQEVGQVSVSLQRASGDFQTTKLNGFEVFARFGSAIAPLGDLDQDGFNDIAIAAPYGGEDKKGIVYIFNGRSTGLNAVPSQILEGQWAARSMPPSFGYSMKGATDIDKNGYPDLIVGAFGVDRAILYRARPVITVNAGLEVYPSILNQDNKTCSLPGTALKVSCFNVRFCLKADGKGVLPRKLNFQVELLLDKLKQKGAIRRALFLYSRSPSHSKNMTISRGGLMQCEELIAYLRDESEFRDKLTPITIFMEYRLDYRTAADTTGLQPILNQFTPANISRQAHILLDCGEDNVCKPKLEVSVDSDQKKIYIGDDNPLTLIVKAQNQGEGAYEAELIVSIPLQADFIGVVRNNEALARLSCAFKTENQTRQVVCDLGNPMKAGTQLLAGLRFSVHQQSEMDTSVKFDLQIQSSNLFDKVSPVVSHKVDLAVLAAVEIRGVSSPDHVFLPIPNWEHKENPETEEDVGPVVQHIYELRNNGPSSFSKAMLHLQWPYKYNNNTLLYILHYDIDGPMNCTSDMEINPLRIKISSLQTTEKNDTVAGQGERDHLITKRDLALSEGDIHTLGCGVAQCLKIVCQVGRLDRGKSAILYVKSLLWTETFMNKENQNHSYSLKSSASFNVIEFPYKNLPIEDITNSTLVTTNVTWGIQPAPMPVPVWVIILAVLAGLLLLAVLVFVMYRMGFFKRVRPPQEEQEREQLQPHENGEGNSET
  other: cell adhesion, percent_of_wt: decreases
